These results are taken from patent US20190276511A1 (BIONTECH RNA PHARMACEUTICALS, published 2019).

The term EC50 denotes the concentration that produces a half-maximal response. Lower therefore signals greater potency.

For experiment [1], the target named is T1, CD40-Fc (human, UniProt P25942 21-193).
T1 construct: extracellular domain; hinge included for covalent assembly; also called CD40 receptor-Fc fusion protein; not shown: human Fc gamma 1 region including the hinge region
The experiment in a line: ELISA, coated receptor-Fc. How it is done: (§1) Receptor binding of the single-chain Duokines was analyzed by ELISA using fusion proteins of the extracellular region of CD40, CD27, 4-1BB and OX40, respectively, with the human Fcγ1 region including the hinge region for covalent assembly (CD40-Fc, CD27-Fc, 4-1BB-Fc, OX40-Fc). Receptor-Fc fusion proteins (200 ng/well) were coated overnight at 4° C. and remaining binding sites were blocked with PBS, 2% skimmed milk powder (2% MPBS). […] The interactions between scDuokine and receptor were dose-dependent with EC₅₀ values in the low nanomolar ranges (FIG. 11 AB, Tab. 2).

Experiment [2] deals with T2, OX40-Fc (human, UniProt P43489 29-214).
T2 construct: extracellular domain; hinge included for covalent assembly; also called OX40 receptor-Fc fusion protein; not shown: human Fc gamma 1 region including the hinge region
T2 sequence (looked up): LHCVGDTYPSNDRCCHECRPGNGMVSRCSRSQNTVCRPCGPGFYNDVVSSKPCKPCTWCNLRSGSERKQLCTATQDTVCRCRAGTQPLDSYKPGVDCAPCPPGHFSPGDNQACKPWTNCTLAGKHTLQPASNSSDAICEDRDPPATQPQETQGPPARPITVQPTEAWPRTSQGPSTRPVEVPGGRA
The experiment in a line: ELISA, coated receptor-Fc. Here is the method:
as §1

Experiment [3] concerns the target T3, CD27-Fc (human, UniProt P26842 20-191).
T3 construct: extracellular domain; hinge included for covalent assembly; also called CD27 receptor-Fc fusion protein; not shown: human Fc gamma 1 region including the hinge region
T3 sequence (looked up): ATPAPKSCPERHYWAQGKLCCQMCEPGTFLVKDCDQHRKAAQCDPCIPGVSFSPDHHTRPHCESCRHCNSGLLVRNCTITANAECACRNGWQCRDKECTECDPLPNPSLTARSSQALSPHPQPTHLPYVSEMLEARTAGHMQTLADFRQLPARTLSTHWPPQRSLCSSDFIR
The experiment in a line: ELISA, coated receptor-Fc. In general terms: An ELISA detects its analyte on a solid surface through an enzyme-linked reagent.

The target in experiment [4] is T4, 4-1BB-Fc (human, UniProt Q07011 24-186).
T4 construct: extracellular domain; hinge included for covalent assembly; also called 4-1BB receptor-Fc fusion protein; not shown: human Fc gamma 1 region including the hinge region
The experiment in a line: ELISA, coated receptor-Fc.

Experiment [5] concerns the target T5, CD40 receptor on cells (human, UniProt P25942 21-277). Nature of the experiment: cell-based or functional assay.
Experiment [6] concerns the target T6, OX40 receptor on cells (human, UniProt P43489 29-277).
T6 sequence (looked up): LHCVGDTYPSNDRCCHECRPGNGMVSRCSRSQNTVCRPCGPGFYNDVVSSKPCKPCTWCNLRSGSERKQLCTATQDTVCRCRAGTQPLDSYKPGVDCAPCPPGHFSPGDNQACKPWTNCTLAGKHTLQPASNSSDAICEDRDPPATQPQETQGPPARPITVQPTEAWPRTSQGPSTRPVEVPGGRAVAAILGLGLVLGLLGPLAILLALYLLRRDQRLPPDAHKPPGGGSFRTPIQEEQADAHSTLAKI
The experiment in a line: cell-based or functional assay.

Experiment [7] has as its target T5, CD40 receptor on cells. The experiment in a line: cell-based or functional assay. The source holds these as a separate data set.
In experiment [8] the target is T6, OX40 receptor on cells. The experiment in a line: cell-based or functional assay. This is another data set of the same source.
In experiment [9] the target is T1, CD40-Fc. The experiment in a line: ELISA, coated receptor-Fc. Here is the method:
(§2) Receptor binding of the Duokines was analyzed by ELISA using fusion proteins of the extracellular region of CD40, CD27, 4-1BB and OX40, respectively, with the human Fcγ1 region including the hinge region for covalent assembly (CD40-Fc, CD27-Fc, 4-1BB-Fc, OX40-Fc). Receptor-Fc fusion proteins (200 ng/well) were coated overnight at 4° C. and remaining binding sites were blocked with PBS, 2% skimmed milk powder (2% MPBS).
The source holds these as a separate data set.

For experiment [10], the target named is T2, OX40-Fc. The experiment in a line: ELISA, coated receptor-Fc. How it is done: as §2
This is another data set of the same source.

The target of experiment [11] is T1, CD40-Fc. The experiment in a line: ELISA, coated receptor-Fc. The source holds these as a separate data set.
The target in experiment [12] is T3, CD27-Fc. Nature of the experiment: ELISA, coated receptor-Fc. Here is the method:
as §2
The source holds these as a separate data set.

Experiment [13] has as its target T3, CD27-Fc. Nature of the experiment: ELISA, coated receptor-Fc. How it is done: as §1
The source holds these as a separate data set.

For experiment [14], the target named is T2, OX40-Fc. Nature of the experiment: ELISA, coated receptor-Fc. This is another data set of the same source.

Read-outs that look alike come from different tables or passages of the source.

T1 sequence (P25942 21-193 limits assumed): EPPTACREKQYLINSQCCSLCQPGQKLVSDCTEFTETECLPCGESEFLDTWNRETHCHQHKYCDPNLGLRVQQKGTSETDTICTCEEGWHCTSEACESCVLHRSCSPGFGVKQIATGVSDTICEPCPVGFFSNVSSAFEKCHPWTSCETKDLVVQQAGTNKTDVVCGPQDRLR
T5 sequence (P25942 21-277): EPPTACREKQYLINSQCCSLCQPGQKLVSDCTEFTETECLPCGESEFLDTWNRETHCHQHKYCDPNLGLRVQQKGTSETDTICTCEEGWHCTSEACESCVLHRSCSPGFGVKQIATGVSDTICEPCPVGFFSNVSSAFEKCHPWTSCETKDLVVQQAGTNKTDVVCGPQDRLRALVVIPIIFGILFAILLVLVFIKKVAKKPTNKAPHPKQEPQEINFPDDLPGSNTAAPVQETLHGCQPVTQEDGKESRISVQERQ

B1: scCD40L-scOX40L (ligand)
chain: GDQNPQIAAHVISEASSKTTSVLQWAEKGYYTMSNNLVTLENGKQLTVKRQGLYYIYAQVTFCSNREASSQAPFIASLCLKSPGRFERILLRAANTHSSAKPCGQQSIHLGGVFELQPGASVFVNVTDPSQVSHGTGFTSFGLLKLGGGSGGGGDQNPQIAAHVISEASSKTTSVLQWAEKGYYTMSNNLVTLENGKQLTVKRQGLYYIYAQVTFCSNREASSQAPFIASLCLKSPGRFERILLRAANTHSSAKPCGQQSIHLGGVFELQPGASVFVNVTDPSQVSHGTGFTSFGLLKLGGGSGGGGDQNPQIAAHVISEASSKTTSVLQWAEKGYYTMSNNLVTLENGKQLTVKRQGLYYIYAQVTFCSNREASSQAPFIASLCLKSPGRFERILLRAANTHSSAKPCGQQSIHLGGVFELQPGASVFVNVTDPSQVSHGTGFTSFGLLKLGGGGSGGGTGGGGSQVSHRYPRIQSIKVQFTEYKKEKGFILTSQKEDEIMKVQNNSVIINCDGFYLISLKGYFSQEVNISLHYQKDEEPLFQLKKVRSVNSLMVASLTYKDKVYLNVTTDNTSLDDFHVNGGELILIHQNPGEFCVLGGGSGGGQVSHRYPRIQSIKVQFTEYKKEKGFILTSQKEDEIMKVQNNSVIINCDGFYLISLKGYFSQEVNISLHYQKDEEPLFQLKKVRSVNSLMVASLTYKDKVYLNVTTDNTSLDDFHVNGGELILIHQNPGEFCVLGGGSGGGQVSHRYPRIQSIKVQFTEYKKEKGFILTSQKEDEIMKVQNNSVIINCDGFYLISLKGYFSQEVNISLHYQKDEEPLFQLKKVRSVNSLMVASLTYKDKVYLNVTTDNTSLDDFHVNGGELILIHQNPGEFCVL
notes: scDuokine from HEK293, FLAG-purified; VH leader left out; also called single-chain Duokine scCD40L-scOX40L; not shown: N-terminal FLAG tag
On to B1, for which the EC50 in experiment [1] amounted to 40.2 nM; in experiment [2], 1.33 nM. For the same molecule, the binding result in experiment [3] and in experiment [4] was “no binding (tested: 100 nM (FIG. 10))” in each case. Further, the “Receptor activation (EC50, nM)” value in experiment [5] amounted to 9.54 nM; in experiment [6], 0.57 nM.

B2: CD40L-OX40L (ligand)
chain: GDQNPQIAAHVISEASSKTTSVLQWAEKGYYTMSNNLVTLENGKQLTVKRQGLYYIYAQVTFCSNREASSQAPFIASLCLKSPGRFERILLRAANTHSSAKPCGQQSIHLGGVFELQPGASVFVNVTDPSQVSHGTGFTSFGLLKLGGGGSGGGGSGGGGSQVSHRYPRIQSIKVQFTEYKKEKGFILTSQKEDEIMKVQNNSVIINCDGFYLISLKGYFSQEVNISLHYQKDEEPLFQLKKVRSVNSLMVASLTYKDKVYLNVTTDNTSLDDFHVNGGELILIHQNPGEFCVL
notes: Duokine from HEK293, FLAG-purified; VH leader left out; homotrimer by SEC; also called Duokine CD40L-OX40L; not shown: N-terminal FLAG tag
For the molecule B2, the “Receptor activation (EC50, nM)” value is 16.6 nM in experiment [7] and 0.7 nM in experiment [8]. The binding result in [3] and in experiment [4] was “no binding (tested: 100 nM (FIG. 4))” in each case. Moreover, the 50% effective concentration (EC50) in experiment [9] turned out to be 2.18 nM; in experiment [10] it was 0.51 nM.

B3: OX40L-CD40L (ligand)
chain: QVSHRYPRIQSIKVQFTEYKKEKGFILTSQKEDEIMKVQNNSVIINCDGFYLISLKGYFSQEVNISLHYQKDEEPLFQLKKVRSVNSLMVASLTYKDKVYLNVTTDNTSLDDFHVNGGELILIHQNPGEFCVLGGGGSGGGGSGGGGSGDQNPQIAAHVISEASSKTTSVLQWAEKGYYTMSNNLVTLENGKQLTVKRQGLYYIYAQVTFCSNREASSQAPFIASLCLKSPGRFERILLRAANTHSSAKPCGQQSIHLGGVFELQPGASVFVNVTDPSQVSHGTGFTSFGLLKL
notes: Duokine from HEK293, FLAG-purified; VH leader left out; homotrimer by SEC; also called Duokine OX40L-CD40L; not shown: N-terminal FLAG tag
Consider B3, for which the results for the “Receptor activation (EC50, nM)” value in experiment [7] and in experiment [8] were 3.86 nM and 0.73 nM, respectively. For the same molecule, the binding result in [3] and in experiment [4] was “no binding (tested: 100 nM (FIG. 4))” each time. Also, the EC50 in experiment [9] was determined as 1.45 nM; in experiment [10], 1.01 nM.

B4: CD27L-OX40L (ligand)
chain: SLGWDVAELQLNHTGPQQDPRLYWQGGPALGRSFLHGPELDKGQLRIHRDGIYMVHIQVTLAICSSTTASRHHPTTLAVGICSPASRSISLLRLSFHQGCTIASQRLTPLARGDTLCTNLTGTLLPSRNTDETFFGVQWVRPGGGGSGGGGSGGGGSQVSHRYPRIQSIKVQFTEYKKEKGFILTSQKEDEIMKVQNNSVIINCDGFYLISLKGYFSQEVNISLHYQKDEEPLFQLKKVRSVNSLMVASLTYKDKVYLNVTTDNTSLDDFHVNGGELILIHQNPGEFCVL
notes: Duokine from HEK293, FLAG-purified; VH leader left out; homotrimer by SEC; also called Duokine CD27L-OX40L; not shown: N-terminal FLAG tag
Turning to B4, in [8], the “Receptor activation (EC50, nM)” value is 10.2 nM. Also, the binding result in [11] and in experiment [4] was “no binding (tested: 100 nM (FIG. 4))” throughout. Further, the results for the EC50 in experiment [12] and in [10] were 6.74 nM and 3.16 nM, respectively.

B5: scCD27L-scCD40L (ligand)
chain: SLGWDVAELQLNHTGPQQDPRLYWQGGPALGRSFLHGPELDKGQLRIHRDGIYMVHIQVTLAICSSTTASRHHPTTLAVGICSPASRSISLLRLSFHQGCTIASQRLTPLARGDTLCTNLTGTLLPSRNTDETFFGVQWVRPGGGSGGGSLGWDVAELQLNHTGPQQDPRLYWQGGPALGRSFLHGPELDKGQLRIHRDGIYMVHIQVTLAICSSTTASRHHPTTLAVGICSPASRSISLLRLSFHQGCTIASQRLTPLARGDTLCTNLTGTLLPSRNTDETFFGVQWVRPGGGSGGGSLGWDVAELQLNHTGPQQDPRLYWQGGPALGRSFLHGPELDKGQLRIHRDGIYMVHIQVTLAICSSTTASRHHPTTLAVGICSPASRSISLLRLSFHQGCTIASQRLTPLARGDTLCTNLTGTLLPSRNTDETFFGVQWVRPGGGGSGGGTGGGGSGDQNPQIAAHVISEASSKTTSVLQWAEKGYYTMSNNLVTLENGKQLTVKRQGLYYIYAQVTFCSNREASSQAPFIASLCLKSPGRFERILLRAANTHSSAKPCGQQSIHLGGVFELQPGASVFVNVTDPSQVSHGTGFTSFGLLKLGGGSGGGGDQNPQIAAHVISEASSKTTSVLQWAEKGYYTMSNNLVTLENGKQLTVKRQGLYYIYAQVTFCSNREASSQAPFIASLCLKSPGRFERILLRAANTHSSAKPCGQQSIHLGGVFELQPGASVFVNVTDPSQVSHGTGFTSFGLLKLGGGSGGGGDQNPQIAAHVISEASSKTTSVLQWAEKGYYTMSNNLVTLENGKQLTVKRQGLYYIYAQVTFCSNREASSQAPFIASLCLKSPGRFERILLRAANTHSSAKPCGQQSIHLGGVFELQPGASVFVNVTDPSQVSHGTGFTSFGLLKL
notes: scDuokine from HEK293, FLAG-purified; VH leader left out; also called single-chain Duokine scCD27L-scCD40L; not shown: N-terminal FLAG tag
For B5, the EC50 was determined as 8.04 nM in experiment [1] and 3.3 nM in experiment [13]. Further, the binding result in [14] and in [4] was “no binding (tested: 100 nM (FIG. 10))” throughout. The “Receptor activation (EC50, nM)” value in experiment [5] came out at 3.7 nM.
